How the values were obtained:
[1] = biological target: LDL receptors (on human RPE cells); assay: cell-based or functional assay
human RPE cells [2] = assay: Uptake of RBP-retinol in human RPE cell cultures after antibody or RAP blocking (HPLC of intracellular atRE and atROL); type: cell-based; settings: RAP added to basal chamber, 2 hours at 4° C.; RBP-retinol (10 μM) in basal media; vs pre-immune rabbit IgG
human RPE cells [3] = assay: Uptake of Alexa Fluor 488-labelled RBP* and IRBP* by RPE cells with and without RAP (fluorescence microscopy, retinyl esters by HPLC); type: cell-based
Description: FIG. 13. Illustrates uptake of RBP- and IRBP-retinol into human RPE. Holo-RBP and IRBP were covalently labeled with a fluorescent probe (Alexa Fluor 488). The labeled proteins (RBP* and IRBP*) were added to either the basal (RBP*) or apical (IRBP*) compartments of the RPE cell culture system. Following a 1 hour incubation at 37° C., the media were removed, the cells were extensively washed and the tissues samples analyzed by fluorescence microscopy.
FIG. 14. Illustrates that RAP inhibits basal uptake of RBP-retinol and apical uptake of IRBP-retinol. Uptake of IRBP* and RBP* by RPE cells was monitored before (panels A and B, respectively) and after (panels D and E, respectively) treatment with the LDL receptor antagonist, RAP. […] To ensure that retinol was also taken into the RPE cells, the cells were washed, collected and analyzed for retinoid content by HPLC. Uptake of retinol into RPE cells results in rapid esterification resulting in retinyl ester formation.

LRP = LRP (Homo sapiens, UniProt Q07954); settings: cited from earlier work
gp330 = gp330 (Rattus norvegicus, UniProt P98158); settings: cited from earlier work
VLDL receptor = VLDL receptor (Homo sapiens, UniProt P98155); settings: cited from earlier work
LDL receptor = LDL receptor (Homo sapiens, UniProt P01130); settings: cited from earlier work
megalin [4] = biological target: megalin (Homo sapiens, UniProt P98164); settings: cited from earlier work
Sequence of megalin (Homo sapiens, UniProt P98164) (P98164 26-4655, species assumed): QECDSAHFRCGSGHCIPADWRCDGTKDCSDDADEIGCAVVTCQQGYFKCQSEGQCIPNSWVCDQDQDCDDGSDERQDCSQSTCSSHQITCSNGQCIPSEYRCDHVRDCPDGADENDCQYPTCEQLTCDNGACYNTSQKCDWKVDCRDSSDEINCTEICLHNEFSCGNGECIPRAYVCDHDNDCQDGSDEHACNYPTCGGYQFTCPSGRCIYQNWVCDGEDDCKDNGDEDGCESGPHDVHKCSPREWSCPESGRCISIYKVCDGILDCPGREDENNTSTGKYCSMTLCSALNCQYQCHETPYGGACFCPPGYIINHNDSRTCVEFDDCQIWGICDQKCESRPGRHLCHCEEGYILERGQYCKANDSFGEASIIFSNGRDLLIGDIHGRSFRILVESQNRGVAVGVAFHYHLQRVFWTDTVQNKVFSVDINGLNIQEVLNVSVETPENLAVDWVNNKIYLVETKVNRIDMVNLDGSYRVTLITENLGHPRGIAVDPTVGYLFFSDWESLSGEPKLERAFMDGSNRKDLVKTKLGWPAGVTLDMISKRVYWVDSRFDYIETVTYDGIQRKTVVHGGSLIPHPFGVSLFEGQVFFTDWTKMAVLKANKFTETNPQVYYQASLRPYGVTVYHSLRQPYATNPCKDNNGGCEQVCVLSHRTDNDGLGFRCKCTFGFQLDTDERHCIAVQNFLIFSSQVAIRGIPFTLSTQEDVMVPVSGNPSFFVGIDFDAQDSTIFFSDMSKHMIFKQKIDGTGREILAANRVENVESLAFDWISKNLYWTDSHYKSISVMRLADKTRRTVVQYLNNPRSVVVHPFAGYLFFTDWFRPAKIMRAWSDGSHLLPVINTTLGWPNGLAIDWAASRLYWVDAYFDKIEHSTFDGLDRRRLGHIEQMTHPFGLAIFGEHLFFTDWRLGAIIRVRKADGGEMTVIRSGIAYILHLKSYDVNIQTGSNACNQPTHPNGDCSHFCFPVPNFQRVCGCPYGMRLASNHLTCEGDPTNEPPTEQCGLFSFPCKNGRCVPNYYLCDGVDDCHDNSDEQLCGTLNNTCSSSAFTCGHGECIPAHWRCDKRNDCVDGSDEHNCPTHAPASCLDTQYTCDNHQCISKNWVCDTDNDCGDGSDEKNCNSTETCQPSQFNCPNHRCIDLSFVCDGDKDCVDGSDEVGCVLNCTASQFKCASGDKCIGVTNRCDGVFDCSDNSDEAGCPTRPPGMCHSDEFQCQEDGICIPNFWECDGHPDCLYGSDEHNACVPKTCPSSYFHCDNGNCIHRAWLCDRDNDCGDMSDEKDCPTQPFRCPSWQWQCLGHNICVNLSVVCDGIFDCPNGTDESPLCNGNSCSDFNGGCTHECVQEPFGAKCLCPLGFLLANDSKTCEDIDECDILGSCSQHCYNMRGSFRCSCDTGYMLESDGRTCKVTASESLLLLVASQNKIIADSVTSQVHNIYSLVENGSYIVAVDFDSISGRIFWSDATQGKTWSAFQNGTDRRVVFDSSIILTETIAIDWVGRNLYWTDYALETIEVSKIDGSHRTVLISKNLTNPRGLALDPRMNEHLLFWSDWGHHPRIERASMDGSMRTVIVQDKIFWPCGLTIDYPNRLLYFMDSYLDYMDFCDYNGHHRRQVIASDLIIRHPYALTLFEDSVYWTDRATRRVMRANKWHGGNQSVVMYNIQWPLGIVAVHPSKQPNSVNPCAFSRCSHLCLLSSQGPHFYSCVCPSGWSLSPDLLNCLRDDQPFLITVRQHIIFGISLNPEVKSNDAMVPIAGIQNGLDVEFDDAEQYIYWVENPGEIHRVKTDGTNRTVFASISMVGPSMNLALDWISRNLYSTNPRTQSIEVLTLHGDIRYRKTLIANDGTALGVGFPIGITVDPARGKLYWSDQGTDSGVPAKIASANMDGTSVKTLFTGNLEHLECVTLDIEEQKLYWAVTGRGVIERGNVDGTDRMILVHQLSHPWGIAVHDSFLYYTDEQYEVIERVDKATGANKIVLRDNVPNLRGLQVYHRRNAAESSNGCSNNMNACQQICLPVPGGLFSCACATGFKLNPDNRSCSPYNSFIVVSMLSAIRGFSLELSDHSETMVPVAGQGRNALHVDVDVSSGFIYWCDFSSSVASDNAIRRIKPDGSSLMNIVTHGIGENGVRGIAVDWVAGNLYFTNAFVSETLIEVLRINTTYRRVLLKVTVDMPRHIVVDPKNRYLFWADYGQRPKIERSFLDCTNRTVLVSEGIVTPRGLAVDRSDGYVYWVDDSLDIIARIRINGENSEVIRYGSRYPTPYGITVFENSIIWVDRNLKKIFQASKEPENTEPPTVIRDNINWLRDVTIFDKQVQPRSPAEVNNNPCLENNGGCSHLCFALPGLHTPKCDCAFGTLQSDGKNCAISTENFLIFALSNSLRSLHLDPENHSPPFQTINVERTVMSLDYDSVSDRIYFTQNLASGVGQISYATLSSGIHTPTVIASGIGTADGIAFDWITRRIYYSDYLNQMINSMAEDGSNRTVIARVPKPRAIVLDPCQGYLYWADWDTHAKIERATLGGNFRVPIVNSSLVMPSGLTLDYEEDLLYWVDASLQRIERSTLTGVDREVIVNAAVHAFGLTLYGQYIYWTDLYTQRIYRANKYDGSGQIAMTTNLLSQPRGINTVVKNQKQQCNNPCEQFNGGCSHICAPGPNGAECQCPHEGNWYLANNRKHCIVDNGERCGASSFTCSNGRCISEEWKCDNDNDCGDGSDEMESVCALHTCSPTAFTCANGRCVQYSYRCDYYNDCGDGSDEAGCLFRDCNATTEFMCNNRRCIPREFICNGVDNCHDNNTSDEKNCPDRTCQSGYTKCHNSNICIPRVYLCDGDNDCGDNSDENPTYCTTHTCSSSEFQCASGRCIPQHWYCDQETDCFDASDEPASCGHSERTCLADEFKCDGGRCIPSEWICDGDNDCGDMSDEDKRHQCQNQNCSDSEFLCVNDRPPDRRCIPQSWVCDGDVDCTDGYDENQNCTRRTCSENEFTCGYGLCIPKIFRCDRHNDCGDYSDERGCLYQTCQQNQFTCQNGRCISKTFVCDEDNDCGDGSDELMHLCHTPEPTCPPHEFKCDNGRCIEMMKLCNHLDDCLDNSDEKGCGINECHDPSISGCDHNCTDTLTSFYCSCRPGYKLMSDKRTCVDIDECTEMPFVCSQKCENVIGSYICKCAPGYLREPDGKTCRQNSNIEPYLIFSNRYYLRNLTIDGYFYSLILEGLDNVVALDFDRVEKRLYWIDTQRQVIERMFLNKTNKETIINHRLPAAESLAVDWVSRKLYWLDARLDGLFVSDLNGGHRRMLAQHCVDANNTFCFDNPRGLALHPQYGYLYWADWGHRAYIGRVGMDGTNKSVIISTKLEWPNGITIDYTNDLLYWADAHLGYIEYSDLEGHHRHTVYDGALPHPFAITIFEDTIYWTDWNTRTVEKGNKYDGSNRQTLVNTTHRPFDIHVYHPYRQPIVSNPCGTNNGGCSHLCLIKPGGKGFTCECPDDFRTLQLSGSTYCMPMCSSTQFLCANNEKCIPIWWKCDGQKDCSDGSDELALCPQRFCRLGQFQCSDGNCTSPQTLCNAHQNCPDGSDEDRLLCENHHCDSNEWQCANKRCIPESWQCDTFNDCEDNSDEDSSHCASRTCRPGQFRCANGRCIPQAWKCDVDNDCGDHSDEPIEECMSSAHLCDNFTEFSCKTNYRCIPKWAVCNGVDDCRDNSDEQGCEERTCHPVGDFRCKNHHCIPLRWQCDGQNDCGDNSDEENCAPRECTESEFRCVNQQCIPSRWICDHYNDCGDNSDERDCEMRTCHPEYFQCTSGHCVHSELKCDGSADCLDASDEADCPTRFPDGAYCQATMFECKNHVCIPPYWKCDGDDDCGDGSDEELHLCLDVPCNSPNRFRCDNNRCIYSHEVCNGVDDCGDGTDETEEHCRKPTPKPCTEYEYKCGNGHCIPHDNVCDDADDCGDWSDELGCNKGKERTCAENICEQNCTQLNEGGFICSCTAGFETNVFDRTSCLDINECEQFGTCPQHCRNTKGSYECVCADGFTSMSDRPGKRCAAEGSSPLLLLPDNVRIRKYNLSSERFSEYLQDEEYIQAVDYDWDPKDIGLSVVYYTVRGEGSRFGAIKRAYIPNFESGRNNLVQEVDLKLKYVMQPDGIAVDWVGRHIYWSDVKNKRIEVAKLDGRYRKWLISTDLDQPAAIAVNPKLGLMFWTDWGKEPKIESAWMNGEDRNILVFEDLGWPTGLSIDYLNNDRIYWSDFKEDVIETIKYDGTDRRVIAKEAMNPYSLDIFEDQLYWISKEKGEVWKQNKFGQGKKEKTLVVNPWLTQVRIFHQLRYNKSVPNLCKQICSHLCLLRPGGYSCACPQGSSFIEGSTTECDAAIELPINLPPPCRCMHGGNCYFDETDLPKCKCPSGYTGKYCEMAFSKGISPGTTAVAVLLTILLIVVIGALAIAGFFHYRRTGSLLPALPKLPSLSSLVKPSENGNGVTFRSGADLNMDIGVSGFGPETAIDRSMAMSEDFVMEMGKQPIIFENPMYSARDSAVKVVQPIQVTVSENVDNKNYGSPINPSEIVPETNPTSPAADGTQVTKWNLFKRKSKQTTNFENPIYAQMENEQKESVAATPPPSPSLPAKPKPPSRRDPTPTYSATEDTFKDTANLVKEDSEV

megalin [5] = assay: Megalin protein level in mouse eyecup membrane fractions by immunoblot; type: in vivo; settings: MPR-treated mice compared to age-matched wild-type and abcr knockout mice; two immunoreactive bands
Description: FIG. 12. Illustrates megalin protein level in the eye cup from mice with different serum RBP-retinol levels. LDL receptors function to uptake RBP-retinol into RPE. RBP knockout mouse and MPR-treated mouse have lower serum RBP-retinol level. Expression of megalin in eyecup tissues from these mice were examined by immunoblot. Membrane fractions of mouse eyecups were prepared from wild-type mouse (WT), RBP knockout mouse (RBP−/−), ABCR null (abcr−/−) and MPR-treated mice (MPR). Two immunoreactive bands were detected (indicated by white arrows in the figure).
Preparation of Megalin-enriched Membranes from Whole Tissue—Sucrose density centrifugation was used to separate the membranous constituents from kidney, retina and RPE-eyecup (RPE plus choroid and sclera) samples. Following dissection, tissue samples were homogenized in a buffer containing 0.25 M sucrose (pH 7.5). The homogenates were centrifuged at 27,000×g for 20 min. The supernatant fraction was discarded and the resulting pellet (P1) was homogenized in a buffer containing 0.5% CHAPS. […]
Immunoblot Analyses—Protein samples which were used for immunoblot analyses were resuspended in SDS loading buffer. […] The membrane was washed four times, developed with ChemiGlow West Substrate (Alpha Innotech, San Leandro, Calif.) and then visualized by a luminescence imager (Fluor Chem from Alpha Innotech).

[6] = in vivo; cited from earlier work
[7] = RAP treatment, fluorescence microscopy

Compound: receptor-associated protein (RAP) obtained from Oxford Biomedical Research
- inhibition of basal RBP-retinol uptake in human RPE cultures (HPLC of intracellular atRE and atROL) after RAP pre-treatment [1]: 47%
- reduction in retinol uptake as measured by retinyl ester content (HPLC) after RAP pre-treatment [1]: 50%

Compound: RAP: 39 kDa receptor-associated protein, chaperone and universal ligand binding antagonist of LDL receptor gene family members
- inhibition of RBP-retinol uptake by RAP (human RPE cells [2]): 47%
- reduction in retinol uptake as measured by retinyl ester content (human RPE cells [3]; RAP pre-treatment, retinyl esters by HPLC): ~50%
- apical uptake of IRBP* (human RPE cells [3]; [7]): completely suppressed
- basal uptake of RBP* (human RPE cells [3]; [7]): completely suppressed
- Kd (LRP): 4 nM
- Kd (gp330): 8 nM
- Kd (VLDL receptor): 0.7 nM
- Kd (LDL receptor): 500 nM
- binding sites occupied on the receptor protein megalin (megalin [4]): two

Compound: COc1ccc(NC(=O)\C=C(C)/C=C/C=C(C)\C=C\C2=C(C)CCCC2(C)C)cc1 (stereo in doubt) [MPR, 4-methoxyphenylretinamide]
- expression of megalin-immunoreactive proteins in eyecup (megalin [5]): reduced expression
- retinol and RBP levels in serum [6]: reduce

Compound: gentamicin [reference compound]
- molecules bound per megalin protein (megalin [4]): 60-100
